Reference: article PMC4977002
pKd: −log10 of the molar value.

Legend:
Test in all cases: SPR
[1] = target: h9C12 H435A (mouse | human)
[2] = target: h9C12 H433K (mouse | human)
[3] = target: h9C12 N434D (mouse | human)
[4] = target: humanized 9C12 (h9C12), wild type, human IgG1/kappa (mouse | human)
[5] = target: h9C12 P329A (mouse | human)
[6] = target: h9C12 N434A (mouse | human)
[7] = target: h9C12 I253A (mouse | human)
[8] = target: h9C12 H310A (mouse | human)
[9] = target: h9C12 L235A (mouse | human)
[10] = target: h9C12 N434S (mouse | human)

In the case of “Recombinant human TRIM21 PRYSPRY (from UniProt P19474 287-465) (domain or fragment)”, the pKd [1] was 5.26, the pKd [2] was 4.67 and the pKd [3] was 5.35. For the same substance, the pKd [4] was 6.67, the pKd [5] was 6.66 and the koff [5] was 0.062 s⁻¹. The pKd [6] was 5.70, the pKd [7] was 6.25 and the koff [7] was 0.177 s⁻¹. For the same substance, the pKd [8] was 6.58, the koff [8] was 0.086 s⁻¹ and the pKd [9] was 6.65. For the same substance, the koff [9] was 0.062 s⁻¹ and the pKd [10] was 5.44.
